# Values of other authors, collected in PMC4786785.
# Target: Nterm1 (UniProt position 2, ----MPIAQIH)
# Conditions: not stated (wild-type enzyme, described in the context of the natural tautomerase mechanism)
substance,measurement,value
4-oxalocrotonate tautomerase (4-OT) (Pseudomonas putida mt-2),pKa,≈6.4
